Data published in US20190218304A1 (INNATE PHARMA, published 2019).

T1: CD39 mutant 5 (human, UniProt P49961 1-510)
T1 construct: Expressed on transfected Hek-293T cells; also called M5
T1 chain: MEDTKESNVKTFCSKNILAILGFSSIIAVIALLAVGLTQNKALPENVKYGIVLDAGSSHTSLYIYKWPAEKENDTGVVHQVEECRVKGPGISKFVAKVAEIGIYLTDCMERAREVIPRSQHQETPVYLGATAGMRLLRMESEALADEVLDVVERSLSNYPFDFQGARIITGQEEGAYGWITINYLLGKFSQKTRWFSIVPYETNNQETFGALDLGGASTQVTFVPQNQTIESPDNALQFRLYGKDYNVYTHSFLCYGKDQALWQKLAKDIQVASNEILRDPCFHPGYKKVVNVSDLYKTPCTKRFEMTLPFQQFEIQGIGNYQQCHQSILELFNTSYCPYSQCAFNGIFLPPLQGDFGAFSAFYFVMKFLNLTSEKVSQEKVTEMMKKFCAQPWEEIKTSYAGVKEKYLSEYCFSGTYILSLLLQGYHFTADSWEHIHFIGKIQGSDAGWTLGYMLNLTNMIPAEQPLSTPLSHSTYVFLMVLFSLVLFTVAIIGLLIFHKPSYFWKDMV

T2: CD39 mutant 19 (human, UniProt P49961 1-510)
T2 construct: Expressed on transfected Hek-293T cells; also called M19
T2 chain: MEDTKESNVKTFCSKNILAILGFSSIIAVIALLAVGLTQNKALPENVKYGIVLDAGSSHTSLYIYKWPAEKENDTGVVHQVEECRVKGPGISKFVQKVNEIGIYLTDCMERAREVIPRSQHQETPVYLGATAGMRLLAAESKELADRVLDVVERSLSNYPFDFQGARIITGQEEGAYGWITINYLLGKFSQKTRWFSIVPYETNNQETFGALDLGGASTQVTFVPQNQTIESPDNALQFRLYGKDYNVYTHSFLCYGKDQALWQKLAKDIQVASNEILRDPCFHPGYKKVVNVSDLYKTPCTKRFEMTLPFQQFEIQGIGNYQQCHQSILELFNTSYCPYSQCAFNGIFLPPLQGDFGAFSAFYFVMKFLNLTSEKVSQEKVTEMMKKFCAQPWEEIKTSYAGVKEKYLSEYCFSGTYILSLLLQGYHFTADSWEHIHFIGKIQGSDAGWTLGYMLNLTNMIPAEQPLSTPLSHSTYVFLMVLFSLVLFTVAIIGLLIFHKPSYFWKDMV

T3: human CD39 expressed on cells (human, UniProt P49961 1-510)
T3 construct: On CHO transfectants, HEK-293T transfectants (wild type), Ramos lymphoma cells or monocyte-derived dendritic cells, as named under assay; also called huCD39; CHO-huCD39
T3 sequence: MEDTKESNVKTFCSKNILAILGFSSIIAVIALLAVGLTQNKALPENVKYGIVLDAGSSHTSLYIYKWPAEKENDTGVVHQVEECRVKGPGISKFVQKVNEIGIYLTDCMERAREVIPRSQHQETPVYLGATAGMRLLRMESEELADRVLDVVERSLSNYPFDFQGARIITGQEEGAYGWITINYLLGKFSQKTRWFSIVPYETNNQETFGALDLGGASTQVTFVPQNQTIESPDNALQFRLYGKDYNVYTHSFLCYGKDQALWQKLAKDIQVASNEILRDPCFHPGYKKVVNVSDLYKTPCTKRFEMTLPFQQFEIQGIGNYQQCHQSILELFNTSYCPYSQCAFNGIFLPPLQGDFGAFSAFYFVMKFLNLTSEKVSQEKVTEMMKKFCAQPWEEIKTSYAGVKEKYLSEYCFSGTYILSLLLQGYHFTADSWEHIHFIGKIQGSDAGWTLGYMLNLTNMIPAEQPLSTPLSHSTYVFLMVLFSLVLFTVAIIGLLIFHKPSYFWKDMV

T4: CD39 mutant 15 (human, UniProt P49961 1-510)
T4 construct: Expressed on transfected Hek-293T cells; also called M15
T4 chain: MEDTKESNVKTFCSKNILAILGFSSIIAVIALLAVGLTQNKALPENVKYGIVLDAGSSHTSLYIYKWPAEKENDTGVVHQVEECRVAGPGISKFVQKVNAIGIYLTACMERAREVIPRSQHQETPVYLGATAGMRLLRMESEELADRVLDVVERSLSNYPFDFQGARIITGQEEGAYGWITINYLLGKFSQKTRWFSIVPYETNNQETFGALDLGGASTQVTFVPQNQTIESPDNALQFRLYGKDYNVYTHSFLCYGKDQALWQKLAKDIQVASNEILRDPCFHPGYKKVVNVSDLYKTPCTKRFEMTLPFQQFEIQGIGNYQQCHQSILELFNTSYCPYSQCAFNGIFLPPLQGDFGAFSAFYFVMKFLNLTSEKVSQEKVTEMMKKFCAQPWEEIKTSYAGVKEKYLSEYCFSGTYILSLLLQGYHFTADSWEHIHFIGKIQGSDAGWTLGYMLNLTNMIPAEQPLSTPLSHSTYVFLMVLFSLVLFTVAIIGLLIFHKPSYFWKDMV

T5: CD39 mutant 11 (human, UniProt P49961 1-510)
T5 construct: Expressed on transfected Hek-293T cells
T5 sequence: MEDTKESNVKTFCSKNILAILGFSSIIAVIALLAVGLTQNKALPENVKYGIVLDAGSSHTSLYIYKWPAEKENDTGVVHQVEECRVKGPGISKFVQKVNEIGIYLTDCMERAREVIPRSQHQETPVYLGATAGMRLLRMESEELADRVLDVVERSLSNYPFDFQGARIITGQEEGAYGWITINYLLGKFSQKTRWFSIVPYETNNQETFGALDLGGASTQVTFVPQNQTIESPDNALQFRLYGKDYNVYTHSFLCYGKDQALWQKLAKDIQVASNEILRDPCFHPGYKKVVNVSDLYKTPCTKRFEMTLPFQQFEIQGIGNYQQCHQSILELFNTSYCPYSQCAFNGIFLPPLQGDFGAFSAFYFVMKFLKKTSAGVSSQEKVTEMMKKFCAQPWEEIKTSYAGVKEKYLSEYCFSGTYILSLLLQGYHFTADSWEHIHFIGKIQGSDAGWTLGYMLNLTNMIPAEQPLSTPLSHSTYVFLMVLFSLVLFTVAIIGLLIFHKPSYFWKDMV


Tests used:
[1] = target: T1, CD39 mutant 5; assay: flow cytometry on Hek-293T cells transfected with CD39 mutant 5 [panel M5]
[2] = target: T2, CD39 mutant 19; assay: flow cytometry on Hek-293T cells transfected with CD39 mutant 19 [panel M19]
[3] = target: T3, human CD39 expressed on cells; assay: flow cytometry on Hek-293T cells transfected with wild-type CD39 (unstained cells, US: 10,3) [panel WT]
[4] = target: T4, CD39 mutant 15; assay: flow cytometry on Hek-293T cells transfected with CD39 mutant 15 [panel M15]
[5] = target: T1, CD39 mutant 5; assay: flow cytometry on transfected Hek-293T cells
Procedure: (§1) Mutants were transfected in Hek-293T cells, as shown in the table 1, using numbering of SEQ ID NO: 1. Dose-ranges of test antibodies (10-2.5-0.625-0.1563-0.0391-0.0098-0.0024-0.0006 μg/ml) are tested on the 20 generated mutants by flow cytometry.

[6] = target: T5, CD39 mutant 11; assay: flow cytometry on transfected Hek-293T cells
Procedure: as §1

[7] = target: T4, CD39 mutant 15; assay: flow cytometry on transfected Hek-293T cells
Procedure: as §1

[8] = target: T2, CD39 mutant 19; assay: flow cytometry on transfected Hek-293T cells
Procedure: as §1

Row | binding result [1] | binding result [2] | Median : Comp-Alexa Fluor 647-A [3] | binding result [4] | binding result [5] | binding result [7] | binding result [8] | Binder | binding result [6]
1 | no binding | no binding | 4240 |  |  |  |  | antibody I-395 (antibody, V domains shown, Purified from hybridoma supernatant with protein A for screening) VH: EVQLQQSGPELVKPGASVRMSCKASGYTFTDYNMHWVKKNHGKGLEWIGYINPNNGGTTYNQKFKGKATLTVNTSSKTAYMELRSLTSEDSAVYYCTRGGTRFASWGQGTLVTVSA VL: not shown | 
2 | binds | binds | 4340 | no binding |  |  |  | antibody I-396 (antibody, V domains shown, Purified from hybridoma supernatant with protein A for screening) VH: EVQLQQSGAELVKPGASVKLSCIVSGFNIKDTYINWVKQRPEQGLEWIGRIDPANGNTKYDPKFQGKATMTSDTSSNTAYLHLSSLTSDDSAVYYCARWGYDDEEADYFDSWGQGTTLTVSS VL: not shown | 
3 |  |  |  |  | binds | binds | binds | antibody I-399 (antibody, V domains shown, Purified from hybridoma supernatant with protein A for screening) VH: PVQLQQPGAEVVMPGASVKLSCKASGYTFTSFWMNWMRQRPGQGLEWIGEIDPSDFYTNSNQRFKGKATLTVDKSSSTAYMQLSSLTSEDSAVYFCARGDFGWYFDVWGTGTSVTVSS VL: EIVLTQSPTTMTSSPGEKITFTCSASSSINSNYLHWYQQKPGFSPKLLIYRTSNLASGVPTRFSGSGSGTSYSLTIGTMEAEDVATYYCQQGSSLPRTFGGGTKLEIK | no binding (tested: 10 µg/ml (top of dose range))
